# Measurements reported in patent publication US20240336672A1 (INSTITUT PASTEUR, published 2024).
# B1: Cv2.3194 (recombinant human IgG1) (antibody, V domains shown)
# VH: EVQLVESGGGLIQPGGSLRLSCAASGITVTSNYMSWVRQAPGKGLEWVSVIYPGGSTFYADSVKGRFTISRDNSKNTLYLQMNSLRAEDTAVYYCARDLVVYGMDVWGQGTTVTVSS
# VL: EIVLTQSPGTLSLSPGERATLSCRASQSVSSSYLAWYQQKPGQAPRLLIYGASSRATGIPGRFSGSGSGTDFTLTISRLEPEDFAIYYCQQGVTFGGGTKVEIKR
# B2: Cv2.1169 (recombinant human IgG1) (antibody)
# heavy: QVQLVQSGPEVKKPGTSVKVSCKASGFTFTTSAVQWVRQARGQRLEWIGWIVVGSGNTNYAQKFQERVTITRDMSTTTAYMELSSLRSEDTAVYYCAAPYCSGGTCLDGFDIWGQGTMVTVSSASTKGPSVFPLAPSSKSTSGGTAALGCLVKDYFPEPVTVSWNSGALTSGVHTFPAVLQSSGLYSLSSVVTVPSSSLGTQTYICNVNHKPSNTKVDKKVEPKSCDKTHTCPPCPAPELLGGPSVFLFPPKPKDTLMISRTPEVTCVVVDVSHEDPEVKFNWYVDGVEVHNAKTKPREEQYNSTYRVVSVLTVLHQDWLNGKEYKCKVSNKALPAPIEKTISKAKQPREPQVYTLPPSRDELTKNQVSLTCLVKGFYPSDIAVEWESNGQPENNYKTTPPVLDSDGSFFLYSKLTVDKSRWQQGNVFSCSVMHEALHNHYTQKSLSLSPGK
# light: not shown
# notes: also called Cv2.1169 IgG
# Tests used:
# Test in all cases: cell-based or functional assay
# [1] = biological target: SARS-CoV-2 spike, Alpha variant (B.1.1.7), on virus or pseudotyped particles (SARS-CoV-2)
# [2] = biological target: SARS-CoV-2 spike, Omicron BA.1 variant, on virus (SARS-CoV-2)
# [3] = biological target: T1, SARS-CoV-2 spike, Delta variant (B.1.617.2), on virus or pseudotyped particles (SARS-CoV-2)
# [4] = biological target: T1, SARS-CoV-2 spike, Delta variant …; remark: listed apart in the source
# [5] = biological target: T1, SARS-CoV-2 spike, Delta variant …; remark: listed apart in the source
Binder,Pseudoneutralization IC50 [1],Pseudoneutralization IC90 [1],S-Fuse neutralization IC50 [1],S-Fuse neutralization IC90 [1],S-Fuse neutralization IC50 [2],S-Fuse neutralization IC90 [2],Pseudoneutralization IC50 [3],Pseudoneutralization IC90 [3],S-Fuse neutralization IC50 [3],S-Fuse neutralization IC90 [3],"IC50, S-Fuse neutralisation [4]",S-Fuse IC50 [5]
B1,34.7 ng/mL,132 ng/mL,4.3 ng/mL,5.4 ng/mL,24.2 ng/mL,709 ng/mL,54.4 ng/mL,114 ng/mL,6.6 ng/mL,54.7 ng/mL,7.4 ng/mL,
B2,5.5 ng/mL,24 ng/mL,1.6 ng/mL,4 ng/mL,265 ng/mL,7590 ng/mL,8 ng/mL,34.1 ng/mL,2.1 ng/mL,6.4 ng/mL,2.5 ng/mL,4.46 ng/mL
